Source: PMC10258763, “Atomic model for core modifying region of human fatty acid synthase in complex with Denifanstat” (Nature Communications, 2023)

Biological target: the molecule itself
Assay: SEC + other: cryo-EM 2D class averages; truncated modifying region purified by Ni-NTA and Superdex 200 increase 10/300; 2D classes of elution fraction 3

B1: isolated modifying region of hFASN expressed and purified as an independent construct (G855 to G2511) (domain or fragment, human, UniProt P49327 855-2511, looked up)
chain: GSPSAAIYNIDTSSESPDHYLVDHTLDGRVLFPATGYLSIVWKTLARALGLGVEQLPVVFEDVVLHQATILPKTGTVSLEVRLLEASRAFEVSENGNLVVSGKVYQWDDPDPRLFDHPESPTPNPTEPLFLAQAEVYKELRLRGYDYGPHFQGILEASLEGDSGRLLWKDNWVSFMDTMLQMSILGSAKHGLYLPTRVTAIHIDPATHRQKLYTLQDKAQVADVVVSRWLRVTVAGGVHISGLHTESAPRRQQEQQVPILEKFCFTPHTEEGCLSERAALQEELQLCKGLVQALQTKVTQQGLKMVVPGLDGAQIPRDPSQQELPRLLSAACRLQLNGNLQLELAQVLAQERPKLPEDPLLSGLLDSPALKACLDTAVENMPSLKMKVVEVLAGHGHLYSRIPGLLSPHPLLQLSYTATDRHPQALEAAQAELQQHDVAQGQWDPADPAPSALGSADLLVCNCAVAALGDPASALSNMVAALREGGFLLLHTLLRGHPLGDIVAFLTSTEPQYGQGILSQDAWESLFSRVSLRLVGLKKSFYGSTLFLCRRPTPQDSPIFLPVDDTSFRWVESLKGILADEDSSRPVWLKAINCATSGVVGLVNCLRREPGGNRLRCVLLSNLSSTSHVPEVDPGSAELQKVLQGDLVMNVYRDGAWGAFRHFLLEEDKPEEPTAHAFVSTLTRGDLSSIRWVCSSLRHAQPTCPGAQLCTVYYASLNFRDIMLATGKLSPDAIPGKWTSQDSLLGMEFSGRDASGKRVMGLVPAKGLATSVLLSPDFLWDVPSNWTLEEAASVPVVYSTAYYALVVRGRVRPGETLLIHSGSGGVGQAAIAIALSLGCRVFTTVGSAEKRAYLQARFPQLDSTSFANSRDTSFEQHVLWHTGGKGVDLVLNSLAEEKLQASVRCLATHGRFLEIGKFDLSQNHPLGMAIFLKNVTFHGVLLDAFFNESSADWREVWALVQAGIRDGVVRPLKCTVFHGAQVEDAFRYMAQGKHIGKVVVQVLAEEPEAVLKGAKPKLMSAISKTFCPAHKSYIIAGGLGGFGLELAQWLIQRGVQKLVLTSRSGIRTGYQAKQVRRWRRQGVQVQVSTSNISSLEGARGLIAEAAQLGPVGGVFNLAVVLRDGLLENQTPEFFQDVCKPKYSGTLNLDRVTREACPELDYFVVFSSVSCGRGNAGQSNYGFANSAMERICEKRRHEGLPGLAVQWGAIGDVGILVETMSTNDTIVSGTLPQRMASCLEVLDLFLNQPHMVLSSFVLAEKAAAYRDRDSQRDLVEAVAHILGIRDLAAVNLDSSLADLGLDSLMSVEVRQTLERELNLVLSVREVRQLTLRKLQELSSKADEASELACPTPKEDGLAQQQTQLNLRSLLVNPEGPTLMRLNSVQSSERPLFLVHPIEGSTTVFHSLASRLSIPTYGLQCTRAAPLDSIHSLAAYYIDCIRQVQPEGPYRVAGYSYGACVAFEMCSQLQAQQSPAPTHNSLFLFDGSPTYVLAYTQSYRAKLTPGCEAEAETEAICFFVQQFTDMEHNRVLEALLPLKGLEERVAAAVDLIIKSHQGLDRQELSFAARSFYYKLRAAEQYTPKAKYHGNVMLLRAKTGGAYGEDLGADYNLSQVCDGKVSVHVIEGDHRTLLEGSGLESIISIIHSSLAEPRVSVREG
notes: human fatty acid synthase (FASN), residues G855 to G2511, modifying region (DH, ΨME, ΨKR, ER, KR, ACP, TE); also called truncated modifying region; truncated hFASN modifying region; source: HEK293F, transfected (pcDNA3.1, gene synthesized by GenScript), purified (Ni-NTA, Superdex 200)
stoichiometry N: 2
